We go through one molecule from patent US20180030119A1 (published 2018).

For assay [1], the target named is F protein of clinical RSV isolate #1, on virus. The experiment in a line: cell-based or functional assay.
In assay [2] the target is T1, RSV F protein as coated in the ELISA of Example 3 (RSV-EIA antigen by the legend of FIG. 6) (RSV, strain ).
T1 construct: also called total RSV antigen (EIA-antigen)
The assay can be described thus: ELISA, serial dilutions of purified AR201 on coated antigen, anti-human IgG-HRP, four parameter fit. A general note: In an ELISA, binding on a coated surface is turned into a signal by an enzyme label.

B1: AR201 (antibody, V domains shown)
VH: LVQLRESGPGLVKPSQTLSLTCSVSGASINLYDYFWGWIRQAPGRGPEWIGYISGSTYYNPSLKRRATISVDTSKSQFFLELTSVTAADTAVYYCARDVGWGPQYYYGLDVWGQGTTVTVSS
VL: DLVLTQSPGTLSLSPGERATLSCRASHSVQSTSLAWYQQKRGQAPRLLIYGGSSRVTGIPDRFSGSGSGTDFTLTISRLEPEDFAVYYCQQSDRSPPITFGQGTRLEMK
notes: Fully human IgG1, kappa; 1 and 3 are used here; also called KBRV201
One may read the EC50 as the concentration giving half of the maximal effect. Higher therefore signals a less potent agent. With B1, in assay [1], the “IC50 of neutralisation, infectivity assay on Hep2 cells” value came to 1.7 µM. This molecule also showed a concentration for a half-maximal effect (EC50) in assay [2] of 0.000103 µM.
